For orientation: IC50 means the point on the concentration scale where inhibition reaches its midpoint. For orientation: EC50 means the midpoint of the concentration-response curve. Low values mean greater potency, high ones weaker potency. As a reminder, the Kd is a measure of binding affinity in units of concentration. Read a high Kd as a looser complex. A word on the koff: it is the rate constant with which the complex falls apart. The term kon denotes the second-order rate constant of association. Lower therefore signals slow association.

For one assay, the target named is T1, gp70 B.CaseA2 V1/V2 (HIV-1 V1V2 on murine leukemia virus gp70).
T1 construct: also called B.gp70CaseA2 V1/V2; gp70 B.CaseAV1V2
T1 chain: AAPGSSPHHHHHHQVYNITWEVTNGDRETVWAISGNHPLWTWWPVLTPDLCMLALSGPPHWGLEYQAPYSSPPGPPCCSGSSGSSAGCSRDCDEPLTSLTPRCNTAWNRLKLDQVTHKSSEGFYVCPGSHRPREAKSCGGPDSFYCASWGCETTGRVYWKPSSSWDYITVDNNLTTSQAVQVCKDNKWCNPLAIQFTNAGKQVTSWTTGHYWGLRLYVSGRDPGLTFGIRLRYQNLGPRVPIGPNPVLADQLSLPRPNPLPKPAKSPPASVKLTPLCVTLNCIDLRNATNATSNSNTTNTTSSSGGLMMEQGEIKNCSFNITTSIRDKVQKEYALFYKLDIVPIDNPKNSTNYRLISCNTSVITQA
In words: ELISA, OD405 at 10 ug/ml. Background: ELISA stands for enzyme-linked immunosorbent assay.

Assay [1] concerns the target T2, B.62357 140C.
T2 construct: also called B.62357 gp140C
Put plainly: ELISA, OD405.

A further assay concerns the target T3, D.9009SA V1V2 Tags.
T3 Env construct: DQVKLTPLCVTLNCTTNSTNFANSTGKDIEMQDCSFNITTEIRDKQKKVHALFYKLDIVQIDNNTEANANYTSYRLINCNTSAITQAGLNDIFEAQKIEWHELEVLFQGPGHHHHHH
In words: ELISA, OD405.

Assay [2] deals with T4, G.con gp140CF.
T4 construct: also called G.con.env03 gp140CF
In words: ELISA, OD405.

The target in assay [3] is T5, B.63521_V1V2 Tags.
T5 Env construct: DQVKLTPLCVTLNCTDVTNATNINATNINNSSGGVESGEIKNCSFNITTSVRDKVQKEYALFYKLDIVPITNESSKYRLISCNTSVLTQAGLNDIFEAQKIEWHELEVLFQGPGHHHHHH
In words: ELISA, OD405.

Assay [4] deals with B. 681-7 gp140C. In words: ELISA, OD405.
Assay [5] concerns the target T6, B.con gp140CF.
T6 construct: also called B.con.env03 gp140CF
Put plainly: ELISA, OD405.

The target of a further assay is B. 684-6 gp140C. Put plainly: ELISA, OD405.
In assay [6] the target is B.63521 gp140C. Put plainly: ELISA, OD405.
For the next assay, the target named is T7, A.9004SS V1V2 Tags.
T7 Env construct: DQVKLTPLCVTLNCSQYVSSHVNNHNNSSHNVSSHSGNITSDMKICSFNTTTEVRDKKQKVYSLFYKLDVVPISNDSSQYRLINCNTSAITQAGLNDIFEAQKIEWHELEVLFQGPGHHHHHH
Put plainly: ELISA, OD405.

Assay [7] has as its target T8, B.Case A2 V1/V2 Tags.
T8 Env construct: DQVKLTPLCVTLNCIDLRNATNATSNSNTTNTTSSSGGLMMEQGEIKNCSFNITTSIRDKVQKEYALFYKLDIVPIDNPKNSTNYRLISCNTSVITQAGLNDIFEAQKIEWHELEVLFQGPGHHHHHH
Put plainly: ELISA, OD405.

For assay [8], the target named is T9, AE.con gp140CF.
T9 construct: also called AE.con.env03 gp140CF
In words: ELISA, OD405.

Assay [9] deals with Con 6 gp120. Put plainly: ELISA, OD405.
For another assay, the target named is 92TH023 gp120 (HIV-1).
In the next assay the target is T10, AE.A244 gD+ gp120 N160K (HIV-1).
T10 construct: domain: gp120
Put plainly: ELISA.

For assay [10], the target named is T2, B.62357 140C. In words: ELISA, OD405. The source holds these as a separate data set.
The target in assay [11] is T4, G.con gp140CF. Put plainly: ELISA, OD405. The source holds these as a separate data set.
Assay [12] concerns the target T5, B.63521_V1V2 Tags. Put plainly: ELISA, OD405.
For assay [13], the target named is B. 681-7 gp140C. Put plainly: ELISA, OD405. This is another data set of the same source.
For assay [14], the target named is B.63521 gp140C. In words: ELISA, OD405. The source holds these as a separate data set.
Another assay addresses B.040 gp140C. In words: ELISA, OD405 at 10 ug/ml.
Assay [15] concerns the target G.con gp140CF. Put plainly: ELISA, OD405 at 10 ug/ml.
The target of a further assay is T11, B.62357 gp140C.
T11 construct: also called B.62357 140C
Put plainly: ELISA, OD405 at 10 ug/ml.

The next assay addresses T12, A.9004SS V1/V2 tags.
T12 V1V2 tags construct: T7 Env construct
Put plainly: ELISA, OD405 at 10 ug/ml.

In assay [16] the target is B.con gp140CF. Put plainly: ELISA, OD405 at 10 ug/ml.
A further assay has as its target T13, C.1086 gp140.
T13 construct: also called C.1086gp140C
In words: ELISA, OD405 at 10 ug/ml.

The target in another assay is D.9009SA V1/V2 tags. In words: ELISA, OD405 at 10 ug/ml.
In assay [17] the target is AE.con gp140CF. In words: ELISA, OD405 at 10 ug/ml.
For assay [18], the target named is B.Case A2 V1/V2 tags. In words: ELISA, OD405 at 10 ug/ml.
Assay [19] concerns the target Con 6 gp120. In words: ELISA, OD405 at 10 ug/ml.
In the next assay the target is B.63521_V1/V2 tags. Put plainly: ELISA, OD405 at 10 ug/ml.
The next assay deals with AE.A244 V1V2 Tags (HIV-1).

Residue numbers refer to the chain shown, from its start. Where two headings read alike, the source gives them in different places.

B1: PG9 reverted unmutated ancestor antibody (antibody, V domains shown)
VH: QVQLVESGGGVVQPGRSLRLSCAASGFTFSSYGMHWVRQAPGKGLEWVAVISYDGSNKYYADSVKGRFTISRDNSKNTLYLQMNSLRAEDTAVYYCAREAGGPDYRNGYNYYDFWSGYYNYYYMDVWGKGTTVTVSS
VL: QSALTQPASVSGSPGQSITISCTGTSSDVGSYNLVSWYQQHPGKAPKLMIYEVSKRPSGVSNRFSGSKSGNTASLTISGLQAEDEADYYCCSLTSTRRWVFGGGTKLTVL
notes: also called PG9 RUA; PG9_RUA
As for B1, the binding result in the assay with gp70 B.CaseA2 V1/V2 was “no binding (tested: 10 ug/ml)”.

B2: PG16 reverted unmutated ancestor antibody (antibody, V domains shown)
VH: B1 VH with D104I, Y105W, R106H, N107D, G108D, Y109V, N110K, W115N, S116D, N120Y
VL: B1 VL with S95D, T96R, R97S, R98H, W99R, V100I
notes: also called PG16 RUA; PG16_RUA
Regarding B2, the binding result in the assay with B.62357 140C [1], in the assay with D.9009SA V1V2 Tags, in the assay with G.con gp140CF [2], with B.63521_V1V2 Tags [3], with B. 681-7 gp140C [4] and in the assay with B.con gp140CF [5] was “no binding (tested: 10 ug/ml)” in each case. Further, the binding result with B. 684-6 gp140C, with B.63521 gp140C [6], with A.9004SS V1V2 Tags, in the assay with B.Case A2 V1/V2 Tags [7], in the assay with AE.con gp140CF [8] and with Con 6 gp120 [9] was “no binding (tested: 10 ug/ml)” in each case.

B3: PG16 (antibody, V domains shown)
VH: QEQLVESGGGVVQPGGSLRLSCLASGFTFHKYGMHWVRQAPGKGLEWVALISDDGMRKYHSDSMWGRVTISRDNSKNTLYLQFSSLKVEDTAMFFCAREAGGPIWHDDVKYYDFNDGYYNYHYMDVWGKGTTVTVSS
VL: QSALTQPASVSGSPGQTITISCNGTSSDVGGFDSVSWYQQSPGKAPKVMVFDVSHRPSGISNRFSGSKSGNTASLTISGLHIEDEGDYFCSSLTDRSHRIFGGGTKVTVL
notes: also called mAb PG16; bnAb PG16
Molecule B3 registered an IC50 with 92TH023 gp120 of 10 to 100 nM.

B4: CH59 (antibody, V domains shown)
VH: EVQLVESGGGLVQPGRSLRLSCAASGFTFDDGAMHWVRQAPGKGLEWVSGISWNSNIIAYADSVKGRFTISRDNAKNSLYLEMNSLRVEDTALYYCAKDSPRGELPLNYWGQGTLVTVSS
VL: SYELTQPPSVSVSPGQTARITCSGDALPKNYAYWYQQKSGQAPVLVIYEDSKRPSGIPERFSGSSSGTMATLTISGAQVEDEADYYCYSTDSSGNHRVFGGGTKLTVL
notes: also called mAb CH59
In turn, B4 returned an EC50 with AE.A244 gD+ gp120 N160K of 0.03 nM. The binding result with B.62357 140C [10], with G.con gp140CF [11], with B.63521_V1V2 Tags [12], in the assay with B. 681-7 gp140C [13] and with B.63521 gp140C [14] was “no binding (tested: 10 ug/ml)” each time.

B5: CH59 reverted unmutated ancestor antibody (antibody, V domains shown)
VH: B4 VH with G32Y, N56G, I57S, A59G, E82Q, V88A, L107F, N108D
VL: B4 VL with N30K
notes: also called CH59 RUA; CH59_RUA
For B5, the binding result with B.040 gp140C, with G.con gp140CF [15], with B.62357 gp140C, with A.9004SS V1/V2 tags, in the assay with B.con gp140CF [16] and in the assay with C.1086 gp140 was “no binding (tested: 10 ug/ml)” each time. The binding result with D.9009SA V1/V2 tags, with AE.con gp140CF [17], with B.Case A2 V1/V2 tags [18], with Con 6 gp120 [19] and with B.63521_V1/V2 tags was “no binding (tested: 10 ug/ml)” in each case.

B6: 697D (antibody, V domains shown)
VH: QVQLVQSGAEVKKPGSSVKVSCKASGGNFNTYTISWVRQAPGQGLEWMGRIIPIFGIVNPAQKFPGRVTINVDKSTNTAYMELSSLRSEDTAVYYCATSGVGLHFGYFDYWGQGTQVTVSS
VL: QSVLTQPPSVSGAPGQRVTISCTGSSSNIGAHYDVHWYQQLPGTAPKLLIYGNSNRPSGVPDRFSGSKSGTSASLAITGLQAEDEADYYCQSYDSSLSGYVFGTGTKVTVL
notes: also called mAb 697D; V2 conformational mAb 697D
In the assay with AE.A244 V1V2 Tags, B6 had a Kd of 117 nM, a koff of 0.0024 s⁻¹ and a kon of 20000 M⁻¹ s⁻¹.

The record behind these values is patent US9988424 (DUKE UNIVERSITY, dated 2018).
